{
  "source": "patent US20070054353A1",
  "about": "“Nuclear receptor transcriptional corepressor and uses thereof” (priority 2002, published 2007)",
  "molecules": {"B1": {"name": "LCoR: novel 433 amino acid nuclear receptor corepressor polypeptide (SEQ ID NO:2) with a single LXXLL NR box (protein, listed as Homo sapiens)", "chain": "MQRMIQQFAAEYTSKNSSTQDPSQPNSTKNQSLPKASPVTTSPTAATTQNPVLSKLLMADQDSPLDLTVRKSQSEPSEQDGVLDLSTKKSPCAGSTSLSHSPGCSSTQGNGRPGRPSQYRPDGLRSGDGVPPRSLQDGTREGFGHSTSLKVPLARSLQISEELLSRNQLSTAASLGPSGLQNHGQHLILSREASWAKPHYEFNLSRMKFRGNGALSNISDLPFLAENSAFPKMALQAKQDGKKDVSHSSPVDLKIPQVRGMDLSWESRTGDQYSYSSLVMGSQTESALSKKLRAILPKQSRKSMLDAGPDSWGSDAEQSTPGQPYPTSDQEGDPGSKQPRKKRGRYRQYNSEILEEAISVVMSGKMSVSKAQSIYGIPHSTLEYKVKERLGTLKNPPKKKMKLMRSEGPDVSVKIELDPQGEAAQSANESKNE"}, "B2": {"name": "LCoR-LSKAA: LCoR with point mutagenesis of NR box LSKLL to LSKAA at position 53 (protein)", "chain": "B1 chain with L56A, L57A"}},
  "type_in_all_cases": "cell-based",
  "key": {"ERα": {"molecular_target": "T1, ERα (Homo sapiens, UniProt P03372)", "T1 construct": "expressed in transfected cells; host or cells: COS-7", "T1 sequence (P03372 1-595)": "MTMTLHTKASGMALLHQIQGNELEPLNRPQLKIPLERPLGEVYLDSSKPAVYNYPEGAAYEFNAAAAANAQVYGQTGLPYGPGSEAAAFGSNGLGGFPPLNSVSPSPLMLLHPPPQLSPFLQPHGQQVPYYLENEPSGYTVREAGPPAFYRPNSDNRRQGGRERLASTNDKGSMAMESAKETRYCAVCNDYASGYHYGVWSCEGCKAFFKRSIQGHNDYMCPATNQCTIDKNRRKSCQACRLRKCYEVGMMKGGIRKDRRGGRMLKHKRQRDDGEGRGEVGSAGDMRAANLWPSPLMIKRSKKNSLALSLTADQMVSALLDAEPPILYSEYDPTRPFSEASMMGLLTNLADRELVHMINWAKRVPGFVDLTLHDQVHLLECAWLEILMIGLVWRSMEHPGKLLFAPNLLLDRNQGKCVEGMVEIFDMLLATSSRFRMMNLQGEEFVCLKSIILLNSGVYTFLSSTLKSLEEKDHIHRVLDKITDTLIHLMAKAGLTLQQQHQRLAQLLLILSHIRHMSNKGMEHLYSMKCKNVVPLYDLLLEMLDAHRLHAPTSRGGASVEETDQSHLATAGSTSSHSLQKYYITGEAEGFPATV", "test": "Transient transfection luciferase reporter, ERα transactivation in COS-7 cells", "details": "coexpression in COS-7 cells, 10^−7M hormone, ERE3-TATA-pXP2 reporter", "experimental": "(§1) All cell lines were cultured under the recommended conditions. COS-7 cells grown in […] in DMEM without phenol red, supplemented with 10% FBS were transfected in medium without serum with lipofectamine 2000 (Invitrogen, Burlington, Ont.) with 100 ng of nuclear receptor expression vectors as indicated, 200 ng of TIF-2 or TIF-2.1, as indicated, 250 ng of reporter plasmid, 250 ng of infemal control vector pCMV-βgal, and various concentrations of LCoR/pSG5 or LCoR-LSKAA/pSG5 expression vectors and pSG5 carrier. Medium was replaced 24 h after transfection by a medium containing charcoal-stripped serum and ligand (100 nM) and TSA (3 μM) for 18 h, as indicated. Cells were harvested in 200 […] of reporter lysis buffer (Promega).\n(§2) COS-7 cells were cotransfected with expression vectors for ERα HEG0 (A and C) or GR (D) or PR (F) or VDR (H), ERE3-TATA-pXP2 (A and C), GRE5/pXP2 (D and F) or VDRE3tk/pXP2 (H) luciferase reporter vectors, pCMV-β-gal as internal control, and LCoR/pSG5 or LSKAA/pSG5 expression vectors as indicated. Cells were treated with 10^−7M of hormones (solid bars) or vehicle (open bars). Normalized luciferase activities (RLU) are the means±SEM from at least 3 experiments. […] Cells were transfected as in FIG. 5A with LCoR, TIF-2 or TIF2.1 as indicated. […]"}, "GR": {"molecular_target": "T2, GR (Homo sapiens, UniProt P04150)", "T2 construct": "expressed in transfected cells; host or cells: COS-7", "T2 sequence (P04150 1-777)": "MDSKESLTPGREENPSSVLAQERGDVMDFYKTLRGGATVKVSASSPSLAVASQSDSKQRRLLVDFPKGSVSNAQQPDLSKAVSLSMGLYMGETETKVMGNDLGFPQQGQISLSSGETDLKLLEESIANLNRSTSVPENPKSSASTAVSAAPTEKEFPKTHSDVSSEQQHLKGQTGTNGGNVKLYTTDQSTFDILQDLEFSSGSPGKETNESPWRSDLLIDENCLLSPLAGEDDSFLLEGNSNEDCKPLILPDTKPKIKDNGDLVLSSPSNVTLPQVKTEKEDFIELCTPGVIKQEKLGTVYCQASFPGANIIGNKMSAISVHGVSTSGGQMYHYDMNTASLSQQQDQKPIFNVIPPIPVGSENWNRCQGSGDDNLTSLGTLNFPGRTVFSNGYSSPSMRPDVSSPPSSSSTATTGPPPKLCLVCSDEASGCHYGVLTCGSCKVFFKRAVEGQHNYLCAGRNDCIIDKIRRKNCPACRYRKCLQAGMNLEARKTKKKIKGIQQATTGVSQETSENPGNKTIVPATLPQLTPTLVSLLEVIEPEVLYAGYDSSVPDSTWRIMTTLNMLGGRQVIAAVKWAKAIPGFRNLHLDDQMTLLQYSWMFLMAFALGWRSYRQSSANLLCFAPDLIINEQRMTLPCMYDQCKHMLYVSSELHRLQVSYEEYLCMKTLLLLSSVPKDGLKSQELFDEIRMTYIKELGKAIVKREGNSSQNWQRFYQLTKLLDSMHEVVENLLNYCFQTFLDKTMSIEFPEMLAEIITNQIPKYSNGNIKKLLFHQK", "test": "Transient transfection luciferase reporter, GR transactivation in COS-7 cells", "details": "1 μg of transfected LCoR, COS-7; one range given for GR, PR and VDR together", "experimental": "as §1, §2"}, "PR": {"molecular_target": "T3, PR (Homo sapiens, UniProt P06401)", "T3 construct": "expressed in transfected cells; host or cells: COS-7", "T3 sequence (P06401 1-933)": "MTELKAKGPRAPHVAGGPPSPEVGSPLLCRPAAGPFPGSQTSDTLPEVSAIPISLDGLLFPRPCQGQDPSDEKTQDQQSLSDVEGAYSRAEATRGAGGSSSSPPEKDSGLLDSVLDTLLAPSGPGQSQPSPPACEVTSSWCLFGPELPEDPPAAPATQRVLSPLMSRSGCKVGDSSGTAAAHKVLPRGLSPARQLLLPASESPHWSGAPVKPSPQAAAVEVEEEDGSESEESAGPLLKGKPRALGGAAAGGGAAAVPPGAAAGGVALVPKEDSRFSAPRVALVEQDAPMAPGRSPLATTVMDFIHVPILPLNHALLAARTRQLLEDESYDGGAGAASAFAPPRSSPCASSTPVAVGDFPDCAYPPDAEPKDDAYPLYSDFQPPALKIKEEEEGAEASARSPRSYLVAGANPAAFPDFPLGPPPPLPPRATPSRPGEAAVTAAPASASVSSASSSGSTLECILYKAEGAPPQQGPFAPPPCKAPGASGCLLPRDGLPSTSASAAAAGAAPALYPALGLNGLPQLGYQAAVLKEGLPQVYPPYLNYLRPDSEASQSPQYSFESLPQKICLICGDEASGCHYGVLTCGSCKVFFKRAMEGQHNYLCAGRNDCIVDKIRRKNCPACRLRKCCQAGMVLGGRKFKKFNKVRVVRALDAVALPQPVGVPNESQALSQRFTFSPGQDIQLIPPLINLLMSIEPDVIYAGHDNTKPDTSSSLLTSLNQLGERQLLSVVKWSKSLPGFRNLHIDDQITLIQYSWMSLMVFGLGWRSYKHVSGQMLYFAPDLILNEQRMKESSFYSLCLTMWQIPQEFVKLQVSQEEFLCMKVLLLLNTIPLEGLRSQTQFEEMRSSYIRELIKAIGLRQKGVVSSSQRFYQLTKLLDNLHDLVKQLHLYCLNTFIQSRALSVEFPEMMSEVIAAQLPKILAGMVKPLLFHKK", "test": "Transient transfection luciferase reporter, PR transactivation in COS-7 cells", "details": "1 μg of transfected LCoR, COS-7; one range given for GR, PR and VDR together", "experimental": "as §1, §2"}, "VDR": {"molecular_target": "T4, VDR (Homo sapiens, UniProt P11473)", "T4 construct": "expressed in transfected cells; host or cells: COS-7", "T4 sequence (P11473 1-427)": "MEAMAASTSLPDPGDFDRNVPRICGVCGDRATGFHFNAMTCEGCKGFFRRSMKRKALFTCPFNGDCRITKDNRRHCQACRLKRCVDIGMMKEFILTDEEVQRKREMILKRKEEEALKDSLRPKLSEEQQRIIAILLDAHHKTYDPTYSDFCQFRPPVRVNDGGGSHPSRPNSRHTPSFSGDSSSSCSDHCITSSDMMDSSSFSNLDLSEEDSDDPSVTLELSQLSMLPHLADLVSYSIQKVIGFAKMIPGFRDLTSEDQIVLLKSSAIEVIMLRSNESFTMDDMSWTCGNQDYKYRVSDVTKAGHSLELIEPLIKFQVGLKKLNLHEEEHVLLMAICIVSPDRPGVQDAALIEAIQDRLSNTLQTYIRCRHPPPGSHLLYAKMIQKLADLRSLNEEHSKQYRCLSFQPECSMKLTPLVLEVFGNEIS", "test": "Transient transfection luciferase reporter, VDR transactivation in COS-7 cells", "details": "1 μg of transfected LCoR, COS-7; one range given for GR, PR and VDR together", "experimental": "as §1, §2"}, "5×17 mer-tk promoter": {"tested_on": "5×17 mer-tk promoter", "test": "GAL4-LCoR repression of 5×17 mer-tk promoter in COS-7 cells", "experimental": "as §1, §2"}, "nuclear receptors": {"tested_on": "nuclear receptors", "test": "Ligand-dependent transactivation by nuclear receptors (summary)", "experimental": "as §1, §2"}, "[1]": {"molecular_target": "T5, interaction of LCoR and ERα (Homo sapiens, UniProt P03372)", "T5 construct": "expressed in transfected cells; host or cells: COS-7", "T5 sequence (P03372 1-595)": "T1 sequence (P03372 1-595)", "test": "BRET assay of LCoR-ERα interaction in living COS-7 cells", "details": "rluc-LCoR-LSKAA versus rluc-LCoR, COS-7 cells", "experimental": "Readings were started immediately after coelenterazine H addition, and 10 repeated measures were taken.\nInteraction of ERα and LCoR in vivo was further tested by bioluminescence resonance energy transfer (BRET) in living COS-7 cells transiently cotransfected with plasmids expressing ERα-EYFP and LCoR-rluc fusion proteins. […] BRET ratios were calculated as described in experimental procedures."}},
  "note": "Where a chain is given by its changes, count along the chain named.",
  "data": [
    {"molecule": "B1", "values": [
      {"measurement": "repression of hormone-dependent transactivation by ERα", "setting": "ERα", "result": "dose-dependent repression"},
      {"measurement": "repression of ligand-activated transcription, glucocorticoid receptor", "setting": "GR", "result": "2.2-5 fold"},
      {"measurement": "repression of ligand-activated transcription, progesterone receptor", "setting": "PR", "result": "2.2-5 fold"},
      {"measurement": "repression of ligand-activated transcription, vitamin D receptor", "setting": "VDR", "result": "2.2-5 fold"},
      {"measurement": "effect on the 5×17 mer-tk promoter", "setting": "5×17 mer-tk promoter", "result": "had no effect"},
      {"measurement": "inhibition of ligand-dependent transactivation by nuclear receptors", "setting": "nuclear receptors", "result": "up to 5 fold"}
    ]},
    {"molecule": "B2", "values": [
      {"measurement": "effect of NR box mutation on interaction with ERα (BRET)", "setting": "[1]", "result": "largely disrupted hormone-dependent interaction and reduced hormone-independent interaction of the two proteins by approximately two-fold"},
      {"measurement": "repression of hormone-dependent transactivation by ERα", "setting": "ERα", "result": "had no effect"}
    ]}
  ]
}
